Data on one molecule can be found in patent US20180186890A1 (UNITED STATES OF AMERICA AS REPRESENTED BY THE SECRETARY …, published 2018).

This test deals with T1, mouse CD276 expressed on the cell surface (mouse, UniProt Q8VE98 29-316).
T1 construct: whole, on cells; also called CHO-msCD276; host CD276 on tumor vasculature of CD276 WT mice
T1 sequence (looked up): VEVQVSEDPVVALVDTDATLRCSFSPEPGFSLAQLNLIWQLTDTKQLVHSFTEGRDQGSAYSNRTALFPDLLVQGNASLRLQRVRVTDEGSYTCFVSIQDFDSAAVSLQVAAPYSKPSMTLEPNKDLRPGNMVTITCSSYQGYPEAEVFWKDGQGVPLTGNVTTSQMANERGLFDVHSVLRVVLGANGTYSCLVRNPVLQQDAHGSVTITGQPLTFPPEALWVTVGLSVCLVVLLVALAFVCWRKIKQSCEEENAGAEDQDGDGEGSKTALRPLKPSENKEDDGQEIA
The experiment in a line: immunofluorescence of tumor vasculature after IP injection; no green staining in CD276 KO mice.

B1: FITC-labeled human anti-CD276 antibody m8524 IgG1 (antibody, V domains shown)
VH: QVQLQQSGAEVKKPGSSVKVSCKASGGTFSSYAISWVRQAPGQGLEWMGGIIPILGIANYAQKFQGRVTITADESTSTAYMELSSLRSEDTAVYYCARGGSGSYHMDVWGKGTTVTVSS
VL: EIVLTQSPATLSLSPGERATLSCRASQSVSSYLAWYQQKPGQAPRLLIYDASNRATGIPARFSGSGSGTDFTLTISSLEPEDFAVYYCQQRSNWPPRITFGQGTRLEIK
modifications: FITC-labeled antibody (site not stated)
notes: IgG1; also called anti-CD276 mAb
B1: the binding result is “binds”.
